Measurements reported in patent publication US20160137696A1 (Bristol-Myers Squibb, published 2016).
Starred links: 1 amine or outer side, 2 acyl side, 3 side chain; linkers in the order of their positions; H or OH if unused. Positions of bridges follow the written chain, without caps; N, C: chain ends. Non-standard residues stand in square brackets, D forms with d. Groups on a side chain read outwards from the residue. Primed or numbered codes have the meaning given here. No end group written: not given here. *: point of attachment. PEG8′ = PEG8 unit (23-azido-3,6,9,12,15,18,21-heptaoxatricosyl, i.e. an eight-unit PEG spacer) linking the triazole to vitamin E succinate; Pra′ = propargylglycine (built in as LPH), clicked to a 1-substituted triazol-4-yl-alanine, O=C([C@H](Cc1cn([*:3])nn1)N[*:1])[*:2]; X1 = (S)‑3‑carboxy‑3‑(15-carboxypentadecanoylamino)propyl, O=C(O)CCCCCCCCCCCCCCC(=O)N[C@@H](CC*)C(=O)O; Pra″ = its azide, alkyne or alkene has reacted where a group follows in round brackets; X2 = (S)‑3‑carboxy‑3‑palmitamidopropyl, CCCCCCCCCCCCCCCC(=O)N[C@@H](CC*)C(=O)O; Phe(4-OMe)″ = p-methoxyphenylalanine, COc1ccc(C[C@H](N[*:1])C(=O)[*:2])cc1; Pra(3) = propargylglycine, clicked to an azide to give a triazolyl-alanine; triazole = 1,2,3-triazole formed by click of the Pra alkyne with the azide; Trp(1-CH2CO) = O=C([C@H](Cc1cn(CC(=O)[*:3])c2ccccc12)N[*:1])[*:2]; Tyr(Me) = O-methyl-tyrosine, COc1ccc(C[C@H](N[*:1])C(=O)[*:2])cc1; C18 diacid = O=C(O)CCCCCCCCCCCCCCCCC(=O)*; Phe(4-F) = N[C@@H](Cc1ccc(F)cc1)C(=O)O; γGlu = O=C(O)[C@H](CCC(=O)[*:2])N[*:1]; Hyp = O=C(O)[C@@H]1C[C@@H](O)CN1; NMeF = CN[C@@H](Cc1ccccc1)C(=O)O; F3Phe = trifluoro-phenylalanine; dHyp = O=C(O)[C@H]1C[C@H](O)CN1; NMeNle = CCCC[C@H](NC)C(=O)O; Suc = O=C(CCC(=O)[*:2])[*:1]; triazole″ = not defined here; Pip = O=C(O)[C@@H]1CCCCN1; NMeA = CN[C@@H](C)C(=O)O; Pra = C#CC[C@H](N)C(=O)O; Dab = NCC[C@H](N)C(=O)O; Dap = NC[C@H](N)C(=O)O

B1: Example 14124 (peptide)
peptide: {CH2CO}-F[Pip]DP[Dap]L[Hyp]W[Dab]W[NMeNle][NMeNle]LCGD
modifications: thioether N-14; not fully specified (residues 1, 10, 16, C-terminus); also: residue 1 written Tyr(4-F)
B2: Example 14086 (peptide)
peptide: YADPHKPWKWXXECGXD
modifications: as m110 (INT 1400E); Pra triazole-linked to vitamin E succinate 5-azidopentylamide
B3: INT-1400L (peptide)
peptide: {CH2CO}-[F3Phe][NMeF][NMeNle][dHyp]DV[NMeF]D[dP]WYLCG[Pra]
modifications: thioether N-13; not fully specified (C-terminus); printed as ClAc-F3Phe-mPhe-mNle-dHyp-Asp-Val-mPhe-Asp-dPro-Trp-Tyr-Leu-Cys-Gly-[(S)-propargylglycine]
notes: also called Intermediate 1400L
B4: INT-130AE (peptide)
peptide: {CH2CO}-Y[NMeA]DP[Dap]L[Hyp]W[Dab][Trp(1-CH2CO)][NMeNle][NMeNle]ECG[Pra]-OH
modifications: thioether N-14
SMILES: C#CC[C@H](NC(=O)CNC(=O)[C@@H]1CSCC(=O)N[C@@H](Cc2ccc(O)cc2)C(=O)N(C)[C@@H](C)C(=O)N[C@@H](CC(=O)O)C(=O)N2CCC[C@H]2C(=O)N[C@@H](CN)C(=O)N[C@@H](CC(C)C)C(=O)N2C[C@H](O)C[C@H]2C(=O)N[C@@H](Cc2c[nH]c3ccccc23)C(=O)N[C@@H](CCN)C(=O)N[C@@H](Cc2cn(CC(=O)O)c3ccccc23)C(=O)N(C)[C@@H](CCCC)C(=O)N(C)[C@@H](CCCC)C(=O)N[C@@H](CCC(=O)O)C(=O)N1)C(=O)O
B5: INT-130AD (peptide)
peptide: {CH2CO}-Y[NMeA]NP[Dap]L[Hyp]W[Dab][Trp(1-CH2CO)][NMeNle][NMeNle]ECG[Pra]-OH
modifications: thioether N-14
SMILES: C#CC[C@H](NC(=O)CNC(=O)[C@@H]1CSCC(=O)N[C@@H](Cc2ccc(O)cc2)C(=O)N(C)[C@@H](C)C(=O)N[C@@H](CC(N)=O)C(=O)N2CCC[C@H]2C(=O)N[C@@H](CN)C(=O)N[C@@H](CC(C)C)C(=O)N2C[C@H](O)C[C@H]2C(=O)N[C@@H](Cc2c[nH]c3ccccc23)C(=O)N[C@@H](CCN)C(=O)N[C@@H](Cc2cn(CC(=O)O)c3ccccc23)C(=O)N(C)[C@@H](CCCC)C(=O)N(C)[C@@H](CCCC)C(=O)N[C@@H](CCC(=O)O)C(=O)N1)C(=O)O
B6: INT-1400I (peptide)
peptide: {CH2CO}-Y[NMeA]NP[Dap]L[Hyp]WS[Trp(1-CH2CO)][NMeNle][NMeNle]ECG[Pra]
modifications: thioether N-14; not fully specified (C-terminus); printed as ClAc-Tyr-mAla-Asn-Pro-Dap-Leu-Hyp-Trp-Ser-Trp(1-carboxymethyl)-mNle-mNle-E-Cys-Gly-[(S)-propargylglycine], cyclised ClAc-Cys
notes: also called Intermediate 1400I
B7: Example 14082 (peptide)
peptide: YADPHKPWKWXXECGX
modifications: as m115 (INT 1400J); Pra triazole-linked to vitamin E succinate 5-azidopentylamide
B8: INT-130AA (peptide)
peptide: {CH2CO}-Y[NMeA]NP[Dap]L[Hyp]W[Dab][Trp(1-CH2CO)][NMeNle][NMeNle]LCGG[Pra]-OH
modifications: thioether N-14
SMILES: C#CC[C@H](NC(=O)CNC(=O)CNC(=O)[C@@H]1CSCC(=O)N[C@@H](Cc2ccc(O)cc2)C(=O)N(C)[C@@H](C)C(=O)N[C@@H](CC(N)=O)C(=O)N2CCC[C@H]2C(=O)N[C@@H](CN)C(=O)N[C@@H](CC(C)C)C(=O)N2C[C@H](O)C[C@H]2C(=O)N[C@@H](Cc2c[nH]c3ccccc23)C(=O)N[C@@H](CCN)C(=O)N[C@@H](Cc2cn(CC(=O)O)c3ccccc23)C(=O)N(C)[C@@H](CCCC)C(=O)N(C)[C@@H](CCCC)C(=O)N[C@@H](CC(C)C)C(=O)N1)C(=O)O
notes: also called Intermediate 130AA
B9: INT-1300V (peptide)
peptide: {CH2CO}-Y[NMeA]NP[Dap]L[Hyp]W[Dab][Trp(1-CH2CO)][NMeNle][NMeNle]LCG[Pra]-OH
modifications: thioether N-14
SMILES: C#CC[C@H](NC(=O)CNC(=O)[C@@H]1CSCC(=O)N[C@@H](Cc2ccc(O)cc2)C(=O)N(C)[C@@H](C)C(=O)N[C@@H](CC(N)=O)C(=O)N2CCC[C@H]2C(=O)N[C@@H](CN)C(=O)N[C@@H](CC(C)C)C(=O)N2C[C@H](O)C[C@H]2C(=O)N[C@@H](Cc2c[nH]c3ccccc23)C(=O)N[C@@H](CCN)C(=O)N[C@@H](Cc2cn(CC(=O)O)c3ccccc23)C(=O)N(C)[C@@H](CCCC)C(=O)N(C)[C@@H](CCCC)C(=O)N[C@@H](CC(C)C)C(=O)N1)C(=O)O
B10: INT-1300W (peptide)
peptide: {CH2CO}-Y[NMeA]NP[Dap]L[Hyp]W[Dab][Trp(1-CH2CO)][NMeNle][NMeNle]LCG[Pra]
modifications: thioether N-14; not fully specified; printed as ClAc-Tyr-[N-Me]Ala-Asn-Pro-Dap-Leu-Hyp-Trp-Dab-Trp(1-carboxymethyl)-[N-Me]Nle-[N-Me]Nle-Leu-Cys-Gly-[(S)-propargylglycine]
B11: Example 14085 (peptide)
peptide: YADPHKPWKWXXECGX
modifications: as m102 (INT 1300Y); Pra triazole-linked to vitamin E succinate 5-azidopentylamide

Target: T1, Recombinant Human PD-L1-TVMV-His (human, UniProt Q9NZQ7 19-239)
T1 construct: expressed in HEK293T cells; also called PD-L1-His; hPD-L1(19-239)-TVMV-His
Assay: HTRF vs PD-1-Ig; B = IC50 0.01-0.099 µM
Method: Homogenous Time-Resolved Fluorescence (HTRF) Assays of Binding of Soluble PD-1 to Soluble PD-L1. Soluble PD-1 and soluble PD-L1 refers to proteins with carboxyl-end truncations that remove the transmembrane-spanning regions and are fused to heterologous sequences, specifically the Fc portion of the human immunoglobuling G sequence (Ig) or the hexahistidine epitope tag (His). All binding studies were performed in an HTRF assay buffer consisting of dPBS supplemented with 0.1% (w/v) bovine serum albumin and 0.05% (v/v) Tween-20. For the PD-1-Ig/PD-L1-His binding assay, inhibitors were pre-incubated with PD-L1-His (10 nM final) for 15 m in 4 μl of assay buffer, followed by addition of PD-1-Ig (20 nM final) in 1 μl of assay buffer and further incubation for 15 m. PD-L1 fusion proteins from either human, cynomologous macaques, mouse, or other species were used. HTRF detection was achieved using europium crypate-labeled anti-Ig monoclonal antibody (1 nM final) and allophycocyanin (APC) labeled anti-His monoclonal antibody (20 nM final). Antibodies were diluted in HTRF detection buffer and 5 μl was dispensed on top of binding reaction. The reaction was allowed to equilibrate for 30 minutes and signal (665 nm/620 nm ratio) was obtained using an EnVision fluorometer. Additional binding assays were established between PD-I-Ig/PD-L2-His (20 and 5 nM, respectively), CD80-His/PD-L1-Ig (100 and 10 nM, respectively) and CD80-His/CTLA4-Ig (10 and 5 nM, respectively). Binding/competition studies between biotinylated Compound No. 71 and human PD-L1-His were performed as follows. Macrocyclic peptide inhibitors were pre-incubated with PD-L1-His (10 nM final) for 60 minutes in 4 μl of assay buffer followed by addition of biotinylated Compound No. 71 (0.5 nM final) in 1 μl of assay buffer. Binding was allowed to equilibrate for 30 minutes followed by addition of europium crypated labeled Streptavidin (2.5 pM final) and APC-labeled anti-His (20 nM final) in 5 μl of HTRF buffer. The reaction was allowed to equilibrate for 30 m and signal (665 nm/620 nm ratio) was obtained using an EnVision fluorometer.

T1 sequence (Q9NZQ7 other isoform, or with tags, fused parts or gaps limits assumed): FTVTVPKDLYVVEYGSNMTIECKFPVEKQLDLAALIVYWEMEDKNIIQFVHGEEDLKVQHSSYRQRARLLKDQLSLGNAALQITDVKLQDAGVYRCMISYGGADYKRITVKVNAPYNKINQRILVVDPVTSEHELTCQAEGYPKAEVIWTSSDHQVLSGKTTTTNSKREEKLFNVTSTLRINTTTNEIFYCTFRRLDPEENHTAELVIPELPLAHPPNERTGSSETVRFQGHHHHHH

IC50, 10 to 99 nM:
{CH2CO}-Y[NMeA]DPHK[Hyp]WKW[NMeNle][NMeNle]ECG[Pra″]([triazole″-PEG8′-Suc-vitamin E])G (thioether N-14; reading uncertain) [Example 14052]
B1
{CH2CO}-[Tyr(Me)][Pip]DP[Dap]Q[Hyp]W[Dab][Trp(1-CH2CO)][NMeNle][NMeNle]ECG[Pra″]([triazole-(S)‑18‑((3-azido-1-carboxypropyl)amino)‑18‑oxooctadecanoic acid]) (thioether N-14) [Example 14121]
{CH2CO}-Y[NMeA]DPHK[Hyp]WKW[NMeNle][NMeNle]ECG[Pra(3)]([triazole″-X2])D (thioether N-14; reading uncertain) [Example 14061]
{CH2CO}-Y[NMeA]DPHK[Hyp]WK[Trp(1-CH2CO)][NMeNle][NMeNle]ECG[Pra′]([triazole-X1])D (thioether N-14) [Example 14071]
B2
{CH2CO}-Y[NMeA]DPHK[Hyp]WKW[NMeNle][NMeNle]ECG[Pra′]([triazole-X1])D (thioether N-14) [Example 14065]
B3
{CH2CO}-Y[Pip]NP[Dap]L[Hyp]W[Dab][Trp(1-CH2CO)][NMeNle][NMeNle]LCG[Dab]([γGlu-C18 diacid]) (thioether N-14 (inferred)) [Example 13149]
{CH2CO}-[Phe(4-F)][Pip]DP[Dap]L[Hyp]W[Dab][Trp(1-CH2CO)][NMeNle][NMeNle]LCG[Pra″]([triazole-(S)‑18‑((3-azido-1-carboxypropyl)amino)‑18‑oxooctadecanoic acid]) (thioether N-14; also: residue 1 written Tyr(4-F)) [Example 14122]
B4
B5
{CH2CO}-Y[NMeA]NP[Dap]L[Hyp]WS[Trp(1-CH2CO)][NMeNle][NMeNle]LCG[Pra] (thioether N-14, also called Intermediate 1300X) [INT-1300X]
{CH2CO}-Y[NMeA]NP[Dap]L[Hyp]WS[Trp(1-CH2CO)][NMeNle][NMeNle]ECG[Pra′]([triazole-X1]) (thioether N-14) [Example 14070]
B6
B7
B8
{CH2CO}-[Phe(4-OMe)″][Pip]NPHL[Hyp]W[Dab][Trp(1-CH2CO)][NMeNle][NMeNle]LCG[Dab]([γGlu-C18 diacid]) (thioether N-14 (inferred)) [Example 13151]
B9
B10
B11
